In experiment [1] the target is Human CTLA4 expressed on transfected CHO or Jurkat cells (human) (UniProt P16410). The experiment is described as follows: flow cytometry, whole cell binding to human CTLA4-expressing Jurkat cells, Geo MFI. (In flow cytometry, cells or beads pass a laser one at a time.)
Experiment [2] has as its target Human OX40 expressed on transfected Jurkat or CHO cells (human) (UniProt P43489). Kind of experiment: flow cytometry, whole cell binding to human OX40-expressing Jurkat cells, Geo MFI.

Chain of Human OX40 expressed on transfected Jurkat or CHO cells (human) (P43489 29-277 limits assumed): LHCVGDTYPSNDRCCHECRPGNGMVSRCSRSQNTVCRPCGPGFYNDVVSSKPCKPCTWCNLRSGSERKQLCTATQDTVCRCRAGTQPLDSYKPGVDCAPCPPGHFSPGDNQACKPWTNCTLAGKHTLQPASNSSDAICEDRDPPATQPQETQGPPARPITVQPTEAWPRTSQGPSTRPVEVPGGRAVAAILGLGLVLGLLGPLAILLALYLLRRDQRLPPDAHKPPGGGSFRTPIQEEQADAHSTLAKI
Chain of Human CTLA4 expressed on transfected CHO or Jurkat cells (human) (P16410 36-222 limits assumed): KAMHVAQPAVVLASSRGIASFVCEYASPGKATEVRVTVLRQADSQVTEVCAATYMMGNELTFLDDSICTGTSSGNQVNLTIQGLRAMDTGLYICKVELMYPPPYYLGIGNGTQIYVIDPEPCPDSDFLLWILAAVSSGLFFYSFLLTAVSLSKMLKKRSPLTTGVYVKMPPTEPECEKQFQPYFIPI

By EC50 is commonly meant the concentration giving half of the maximal effect. Consider “ATOR-1015 analog (reference anti-OX40/CTLA4 bispecific antibody synthesized in-house)”, for which the half-maximal effective concentration (EC50) in experiment [1] came to 37.4 nM; in experiment [2], 10.3 nM.

(Values after patent US20240383996A1.)
